The nature of series [1]: confocal, EEA1/Rab7 co-localisation, 10% FBS medium. To be noted: glycan lost; control: NRP1-WT.
Series [2] in a line: confocal, β1-integrin co-internalisation with NRP1, HT29. Conditions: glycan lost; control: NRP1-WT.
Series [3] can be described thus: confocal, HGF-stimulated endocytosis after serum starvation. Conditions: glycan lost; control: NRP1-WT.
Series [4] is described as follows: confocal, Met co-internalisation with NRP1, HT29. Conditions: glycan lost; control: NRP1-WT.
The nature of series [5]: confocal, surface delivery; 24 h transient or serum-free. To be noted: glycan lost; control: NRP1-WT.
Series [6] can be described thus: cycloheximide chase, western blot. To be noted: glycan lost; control: NRP1-WT.
The nature of series [7]: confocal, HT29 NRP1-WT cells, 24 h treatment. To be noted: control: DMSO.

Data on nine substances can be found in paper PMC6697747.

As to Neuropilin-1 (NRP1): N150Q, the localisation_or_trafficking entry in series [1] was “changes”; in series [2] it was “increases”; in series [3], “increases”; in series [4] it was “increases”; in series [5], “no change”. The degradation_or_half_life entry in series [6] is “increases”.
In the case of Neuropilin-1 (NRP1): N150Q/N261Q, the localisation_or_trafficking result in series [1] is given as “changes”. The degradation_or_half_life entry in series [6] is given as “increases”.
On to Neuropilin-1 (NRP1): N261Q, for which the localisation_or_trafficking entry in series [1] is reported as “changes”; in series [2], “increases”; in series [3], “increases”; in series [4], “increases”; in series [5], “no change”. For the same substance, the degradation_or_half_life entry in series [6] is reported as “increases”.
Turning to Neuropilin-1 (NRP1): N300Q, the localisation_or_trafficking result in series [1] and in series [3] was “no change” throughout. Besides, in series [6], the degradation_or_half_life result is given as “no change”.
As to Neuropilin-1 (NRP1): N522Q, the localisation_or_trafficking result in series [1] and in series [3] was “no change” in each case. Moreover, the degradation_or_half_life result in series [6] is reported as “no change”.
On to Neuropilin-1 (NRP1): N842Q, for which the localisation_or_trafficking entry in series [1] and in series [3] was “no change” throughout. Besides, in series [6], the degradation_or_half_life result is “no change”.
Regarding Neuropilin-1 (NRP1): S612A, the localisation_or_trafficking result in series [1] and in series [3] was “no change” each time. In series [6], the degradation_or_half_life result is recorded as “no change”.
Neuropilin-1 (NRP1): swainsonine: the localisation_or_trafficking result in series [7] (glycan changed form) is “changes”.
Consider Neuropilin-1 (NRP1): tunicamycin, for which the localisation_or_trafficking entry in series [7] (glycan lost) is on record as “changes”.
